According to the RNAGym collection of RNA variant scans (doi:10.7554/elife.80360):

B1: Hairpin Ribozyme (parent)
chain: GUCCUCUUUCACGUGCGCGUGAAAGAGAGAAGUGAACCAGAGAAACACACGUUGUGGUAUAUUACCUGGUA

Variants of: B1
Assay: self-cleavage, relative activity (ratio to wild type); higher = more cleavage; co-transcriptional
GUCCUCUUUCACGUGCGCGUGAAAGAGAGAAGUGAACCAGAGAAUCCCACGUUGUGGUAUAUUACCUGGUA [A45U A47C] showed a self-cleavage of 0.132.
Work on GUCCUCUUUCACGUGCGCGUGAAAGAGAGAAGUGAACCAGAGAAUCUCACGUUGUGGUAUAUUACCUGGUA [A45U A47U] yielded a self-cleavage of 0.0501.
With GUCCUCUUUCACGUGCGCGUGAAAGAGAGAAGUGAACCAGAGAAUCGCACGUUGUGGUAUAUUACCUGGUA [A45U A47G] the self-cleavage was 0.178.
Variant GUCCUCUUUCACGUGCGCGUGAAAGAGAGAAGUGAACCAGAGAAGCACACGUUGUGUUAUAUUACCUGGUA [A45G G57U] has a self-cleavage of 0.175.
With GUCCUCUUUCACGUGCGCGUGAAAGAGAGAAGUGAACCAGAGAAGCACACUUUGUGGUAUAUUACCUGGUA [A45G G51U] the self-cleavage was 0.271.
GUCCUCUUUCACGUGCGCGUGAAAGAGAGAAGUGAACCAGAGAAGCUCACGUUGUGGUAUAUUACCUGGUA [A45G A47U] gave a self-cleavage of 0.113.
Work on GUCCUCUUUCACGUGCGCGUGAAAGAGAGAAGUGAACCAGAGAAGCCCACGUUGUGGUAUAUUACCUGGUA [A45G A47C] yielded a self-cleavage of 0.228.
Variant GUCCUCUUUCACGUGCGCGUGAAAGAGAGAAGUGAACCAGAGAAGCACACGUUGUGGUAAAUUACCUGGUA [A45G U60A] has a self-cleavage of 0.105.
GUCCUCUUUCACGUGCGCGUGAAAGAGAGAAGUGAACCAGAGAACCACACGUUGUGGUAUAGUACCUGGUA [A45C U62G] showed a self-cleavage of 0.0741.
Work on GUCCUCUUUCACGUGCGCGUGAAAGAGAGAAGUGAACCAGAGAACCACACGUUGUGGUAUAUCACCUGGUA [A45C U63C] yielded a self-cleavage of 0.0707.
For GUCCUCUUUCACGUGCGCGUGAAAGAGAGAAGUGAACCAGAGAACCACACGUUGUGGUAUAUGACCUGGUA [A45C U63G], the self-cleavage was 0.136.
GUCCUCUUUCACGUGCGCGUGAAAGAGAGAAGUGAACCAGAGAAGCACACGUUGCGGUAUAUUACCUGGUA [A45G U55C] showed a self-cleavage of 0.124.
For GUCCUCUUUCACGUGCGCGUGAAAGAGAGAAGUGAACCAGAGAAGCACACGUUGGGGUAUAUUACCUGGUA [A45G U55G], the self-cleavage was 0.
With GUCCUCUUUCACGUGCGCGUGAAAGAGAGAAGUGAACCAGAGAAGCACACGUUGUGGUAUAUUACCUGCUA [A45G G69C] the self-cleavage was 0.171.
For GUCCUCUUUCACGUGCGCGUGAAAGAGAGAAGUGAACCAGAGAAGCACACGUUGUGGUAUAUUACCUGUUA [A45G G69U], the self-cleavage was 0.141.
In the case of GUCCUCUUUCACGUGCGCGUGAAAGAGAGAAGUGAACCAGAGAAGCACACGUUGUGGUAUAUUACCUGAUA [A45G G69A], the self-cleavage is reported as 0.117.
GUCCUCUUUCACGUGCGCGUGAAAGAGAGAAGUGAACCAGAGAACCACACGUUGUGGUAUAUUACCAGGUA [A45C U67A] gave a self-cleavage of 0.118.
In the case of GUCCUCUUUCACGUGCGCGUGAAAGAGAGAAGUGAACCAGAGAACCACACGUUGUGGUAUAUUACCUGGGA [A45C U70G], the self-cleavage is reported as 0.133.
Work on GUCCUCUUUCACGUGCGCGUGAAAGAGAGAAGUGAACCAGAGAAGGACACGUUGUGGUAUAUUACCUGGUA [A45G C46G] yielded a self-cleavage of 0.181.
GUCCUCUUUCACGUGCGCGUGAAAGAGAGAAGUGAACCAGAGAAGCACACGUUUUGGUAUAUUACCUGGUA [A45G G54U] gave a self-cleavage of 0.2.
Work on GUCCUCUUUCACGUGCGCGUGAAAGAGAGAAGUGAACCAGAGAAGCACACGUUAUGGUAUAUUACCUGGUA [A45G G54A] yielded a self-cleavage of 0.218.
Variant GUCCUCUUUCACGUGCGCGUGAAAGAGAGAAGUGAACCAGAGAAGCACACGUUGUGGGAUAUUACCUGGUA [A45G U58G] has a self-cleavage of 0.199.
Variant GUCCUCUUUCACGUGCGCGUGAAAGAGAGAAGUGAACCAGAGAAGCACACGUUGUGGUAUAUUACCUCGUA [A45G G68C] has a self-cleavage of 0.136.
GUCCUCUUUCACGUGCGCGUGAAAGAGAGAAGUGAACCAGAGAAGCACACGUUGUGGUAUAUUACCUGGAA [A45G U70A] gave a self-cleavage of 0.184.
With GUCCUCUUUCACGUGCGCGUGAAAGAGAGAAGUGAACCAGAGAAGCACACGUUGUGGUAUAUUACCUGGGA [A45G U70G] the self-cleavage was 0.137.
Variant GUCCUCUUUCACGUGCGCGUGAAAGAGAGAAGUGAACCAGAGAAGCACACGUUGUGGUAUAUUACCUGGUC [A45G A71C] has a self-cleavage of 0.399.
With GUCCUCUUUCACGUGCGCGUGAAAGAGAGAAGUGAACCAGAGAAGCACACGUUGUGGUAUAUUACCUGGUG [A45G A71G] the self-cleavage was 0.269.
GUCCUCUUUCACGUGCGCGUGAAAGAGAGAAGUGAACCAGAGAAGCACACGUUGUGGUAUAUUACCUGGUU [A45G A71U] showed a self-cleavage of 0.0799.
In the case of GUCCUCUUUCACGUGCGCGUGAAAGAGAGAAGUGAACCAGAGAAGCACACGUUGUGGUUUAUUACCUGGUA [A45G A59U], the self-cleavage is reported as 0.0542.
For GUCCUCUUUCACGUGCGCGUGAAAGAGAGAAGUGAACCAGAGAAGCACACGUUGUGGUGUAUUACCUGGUA [A45G A59G], the self-cleavage was 0.174.
For GUCCUCUUUCACGUGCGCGUGAAAGAGAGAAGUGAACCAGAGAAGCACACGUUGUGGUAUAUAACCUGGUA [A45G U63A], the self-cleavage was 0.124.
For GUCCUCUUUCACGUGCGCGUGAAAGAGAGAAGUGAACCAGAGAAGCACACGUUGUGGUAUAUUACCGGGUA [A45G U67G], the self-cleavage was 0.0311.
With GUCCUCUUUCACGUGCGCGUGAAAGAGAGAAGUGAACCAGAGAAGCACACGUUGUUGUAUAUUACCUGGUA [A45G G56U] the self-cleavage was 0.131.
With GUCCUCUUUCACGUGCGCGUGAAAGAGAGAAGUGAACCAGAGAAGCAGACGUUGUGGUAUAUUACCUGGUA [A45G C48G] the self-cleavage was 0.113.
With GUCCUCUUUCACGUGCGCGUGAAAGAGAGAAGUGAACCAGAGAAGCAUACGUUGUGGUAUAUUACCUGGUA [A45G C48U] the self-cleavage was 0.0892.
Variant GUCCUCUUUCACGUGCGCGUGAAAGAGAGAAGUGAACCAGAGAAGCACACGUGGUGGUAUAUUACCUGGUA [A45G U53G] has a self-cleavage of 0.108.
In the case of GUCCUCUUUCACGUGCGCGUGAAAGAGAGAAGUGAACCAGAGAAGCACACGUCGUGGUAUAUUACCUGGUA [A45G U53C], the self-cleavage is reported as 0.4.
For GUCCUCUUUCACGUGCGCGUGAAAGAGAGAAGUGAACCAGAGAAGCACACGUUGUGGUAUAUUACUUGGUA [A45G C66U], the self-cleavage was 0.218.
